# Measurements published in publication PMC6109231.
# Values joined by “and” are separate entries in the source; they are usually repeats but may differ in a detail not shown here. Equal entries are not always repeated.
# Target: 20S proteasome core (human (endogenous in HEK293T))
# Test: negative-stain EM, single-particle analysis; SEC fraction 4 (1.5 to 2 MDa) of HEK293T lysate, Superdex 200 in PBS pH 7.2 at 4°C; 2% uranyl acetate; raw micrographs, reference-free 2D class averages, 3D classification (RELION) and ab initio reconstruction (cryoSPARC); proteins identified by mass spectrometry of the fraction
substance,measurement,value
19S regulatory particle (complex),stoichiometry N,1 and 2
